Values quoted from earlier work as cited in publication PMC8112298.

Target: protein Z (Homo sapiens) (UniProt P22891)
UniProt P22891, sequence (P22891 41-400): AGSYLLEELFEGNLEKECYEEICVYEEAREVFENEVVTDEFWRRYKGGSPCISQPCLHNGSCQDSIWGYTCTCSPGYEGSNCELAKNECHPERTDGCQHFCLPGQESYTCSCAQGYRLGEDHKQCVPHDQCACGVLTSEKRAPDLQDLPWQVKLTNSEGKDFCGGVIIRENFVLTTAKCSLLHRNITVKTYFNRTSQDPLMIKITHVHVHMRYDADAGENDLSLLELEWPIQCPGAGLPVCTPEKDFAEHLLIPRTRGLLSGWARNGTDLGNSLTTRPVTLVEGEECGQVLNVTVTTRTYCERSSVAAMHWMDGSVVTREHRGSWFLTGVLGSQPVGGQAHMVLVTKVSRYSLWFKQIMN

Kd: 10 nM
Substance: ZPI (from UniProt Q9UK55)
